Measured values reported in the supplement of paper PMC10567573.

B1: MNAT1 (parent)
chain: LEEALYEYQPLQIETYGPHVPELE
B2: FBXO39 (parent)
chain: PSRVHASEVESAVWYVKKFGRYLE

Variants of: B1
Test: protein stability index of a GFP-peptide fusion (GPS, HEK-293T) (PSI 1-6); higher = more stable
Conditions: c terminus: a fixed tail appended
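Also: lentivirally expressed fusions sorted by FACS into six bins by GFP to DsRed ratio, PSI derived from sequencing read proportions per bin multiplied by bin number.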

Protein stability index: each site, then its substitutions
T15: Q 4.09, I 1.61, P 4.55
E2: C 3.03
Y6: M 3
A4: D 4.84, F 3.1
L1: T 5.14, Y 4.45, G 5.15
P18: A 2.74, M 2.01, G 2.96
Q12: V 2.46, P 5.02, E 3.67, R 2.27
I13: W 3.8, C 4.14, M 4.27
L23: F 2.87, N 3.34, D 4.02
Q9: S 2.94, L 2.7
H19: M 2.09, G 2.26
V20: R 2.58, I 2.4, K 3.23
P10: D 4.33, F 2.91, Q 4.43
E24: P 1.93, K 2.53
E7: D 3.92, K 1.87, H 2.11
E3: R 2.79
Y8: A 5.3, L 4.75
L11: D 4.85, N 4.71
E14: A 2.3
Y16: C 3.84, T 4.09, V 3.19
P21: Y 1.75, C 3.78, I 2.2

Variants of: B2
Test: as above
Conditions: c terminus: a fixed tail appended

Protein stability index of substitutions, site by site:
S11: R 2.07, A 2.03, Y 2.07, H 2.08, L 1.99, I 2.1, K 2.91, F 1.74, D 2.49, G 1.84, N 1.97, E 2.57, T 2.03, P 1.95, V 1.57, C 2.4, Q 1.64, W 1.54, M 2.17
Y15: F 1.42, E 2.45, P 2.61, Q 2.74, R 2.21, W 1.15, A 2.07, I 1.58, V 1.41, K 2.53, M 2.9, G 2.84, L 2.34, D 3.73, C 1.74, S 2.4, T 2.09, H 2.65, N 3.31
S2: R 1.82, L 1.63, T 2.31, I 2.33, G 1.94, Q 2.18, H 1.76, D 2.19, E 2.29, Y 2.48, V 1.46, N 2.51, F 1.64, K 2.67, A 1.71, P 2.05, M 2.08, W 1.89
W14: N 3.68, R 2.58, M 3.3, G 2.89, V 2.64, Y 2.18, D 3.84, K 2.67, C 3.17, T 3.68, S 3.22, L 2.32, F 1.73, H 3.44, E 2.8, A 2.96, Q 2.87, P 2.96, I 2.38
E8: R 3.41, A 3.81, G 1.7, I 2.11, K 2.76, M 3.03, Y 3.1, T 1.7, C 2.27, V 1.46, W 1.42, N 1.56, P 2.75, F 4.46, L 2.36, Q 1.85, H 2.38, S 1.68, D 2.08
V4: G 2.19, F 1.54, L 2.22, P 1.92, Y 1.34, D 2.52, A 2.29, R 1.8, T 1.65, I 2.39, E 2.52, Q 2.21, W 2.06, H 2.25, K 1.63, S 1.58, M 1.97, N 2.13, C 1.49
A6: P 1.82, C 2.08, G 1.97, I 2.06, L 2.24, K 1.79, T 2.4, R 1.56, D 2.46, S 2.72, E 2.32, H 1.76, V 1.7, F 3.3, M 1.27, N 1.74, W 2.48, Q 2.11, Y 1.58
E10: S 2.51, I 1.85, N 1.66, R 2.37, G 1.41, C 1.99, K 2.21, P 2.04, Q 2.17, H 1.65, F 2.31, A 1.64, M 1.49, T 2.69, Y 2, D 1.84, V 1.54, L 3.06
S7: M 1.81, N 2.12, I 1.84, Q 2.36, E 2.09, R 1.48, Y 2.4, T 1.77, H 2.24, K 1.67, A 2.22, V 2.13, F 1.97, P 2.33, G 1.66, L 1.64, D 2.68, W 1.59, C 1.48
V9: T 2.33, P 2.33, H 2.29, W 1.61, C 2.48, K 1.92, D 2.96, L 1.83, Y 1.94, I 2.01, A 2.09, E 3.31, S 2.62, M 1.92, N 2.56, G 3.35, F 1.62, Q 2.35, R 2.34
R3: D 2.9, K 1.83, G 2.29, F 1.49, T 3.32, P 2.49, E 2.04, H 1.98, Q 2.46, L 1.72, Y 1.58, S 2.1, A 2.04, N 2.19, W 2.4, V 2.36, M 2.54, I 2.18, C 1.88
V16: A 2.4
V13: S 2.57, W 1.6, D 2.9, L 2.5, C 1.95, K 1.78, I 1.61, G 2.4, N 3.09, M 2.13, R 2.17, E 2.96, F 1.45, H 2.72, Y 1.43, T 1.96, Q 2.73, P 3.59, A 2.44
P1: V 1.7, R 1.71, H 2.06, Q 3.14, T 2.01, G 2.83, I 1.83, D 2.08, Y 1.63, M 1.87, E 1.84, N 1.72, L 2.13, K 2.21, C 1.82, F 1.66, A 2.45, S 1.52, W 2.5
H5: I 1.39, N 2.36, Y 1.43, R 1.36, K 1.4, A 2.11, Q 2.69, V 1.68, G 2.26, D 2.52, P 2, W 2.86, E 3.31, L 2.49, F 2.02, C 1.61, S 2.05, M 1.86, T 1.43
A12: M 2.16, E 3.02, R 2.54, I 2.34, T 2.08, V 1.29, C 1.49, P 2.25, G 2.02, H 2.83, K 2, W 2.98, Q 3.27, Y 1.65, D 2.13, L 2.08, S 2.18, F 1.28, N 3.01
